In the supplement of paper PMC9112550, “Optimization of the antimicrobial peptide Bac7 by deep mutational scanning” (BMC Biology, 2022):

tested on: Escherichia coli TOP10; assay: shrunken log2 fold change of peptide-encoding DNA abundance (4.5 h post-induction vs induction); higher = less antimicrobial activity (less host growth inhibition); conditions: time post-induction: 4.5 h; library: site-saturation at positions 5, 18, 19, 20
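Also: peptides expressed intracellularly from a pBAD plasmid library in pooled LB shake-flask culture, induced with 0.3% L-arabinose, DNA abundance read by NGS, three biological replicates, DESeq2 with apeglm shrinkage.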

Going from RRIRGRPPRLPRPRPRPAIRPRP to RRIRMRPPRLPRPRPRPFYDPRP, the “shrunken log2 fold change” value falls from 0.768 to -0.12.

Compared with RRIRYRPPRLPRPRPRPSQRPRP, RRIRWRPPRLPRPRPRPKCRPRP is higher in “shrunken log2 fold change” value: -0.0178 for the first, 0.294 for the second.

RRIRCRPPRLPRPRPRPSPGPRP and RRIRMRPPRLPRPRPRPHTEPRP are within 0.2 log units of each other in “shrunken log2 fold change” value: 0.0883 for the first, 0.191 for the second.

RRIRMRPPRLPRPRPRPIVYPRP and RRIRDRPPRLPRPRPRPRVTPRP are within 0.2 log units of each other in “shrunken log2 fold change” value: 0.00317 for the first, -0.0173 for the second.

Going from RRIRVRPPRLPRPRPRPAASPRP to RRIRYRPPRLPRPRPRPMTAPRP, the “shrunken log2 fold change” value falls from 0.267 to -0.0394.

RRIRRRPPRLPRPRPRPEHVPRP and RRIRTRPPRLPRPRPRPIWPPRP are within 0.2 log units of each other in “shrunken log2 fold change” value: 0.232 for the first, 0.173 for the second.

RRIRYRPPRLPRPRPRPFGCPRP and RRIRCRPPRLPRPRPRPFHYPRP are within 0.2 log units of each other in “shrunken log2 fold change” value: -0.139 for the first, -2.22e-05 for the second.

First: RRIRFRPPRLPRPRPRPHCMPRP
Second: RRIRERPPRLPRPRPRPQFCPRP
The “shrunken log2 fold change” value of the first is lower: -0.371 for the first, -0.0627 for the second.

Compared with RRIRTRPPRLPRPRPRPVDCPRP, RRIRNRPPRLPRPRPRPWTNPRP is lower in “shrunken log2 fold change” value: -0.142 for the first, -0.492 for the second.

RRIRHRPPRLPRPRPRPGYTPRP and RRIRWRPPRLPRPRPRPNPMPRP are within 0.2 log units of each other in “shrunken log2 fold change” value: -0.302 for the first, -0.176 for the second.

Compared with RRIRIRPPRLPRPRPRPMKPPRP, RRIRFRPPRLPRPRPRPVLAPRP is higher in “shrunken log2 fold change” value: -0.00581 for the first, 0.239 for the second.

Going from RRIRPRPPRLPRPRPRPVPAPRP to RRIRQRPPRLPRPRPRPHYPPRP, the “shrunken log2 fold change” value falls from 0.361 to -0.219.

First: RRIRVRPPRLPRPRPRPIKMPRP
Second: RRIRMRPPRLPRPRPRPVHYPRP
The “shrunken log2 fold change” value of the first is lower: -0.697 for the first, -0.0505 for the second.

Going from RRIRRRPPRLPRPRPRPRCFPRP to RRIRCRPPRLPRPRPRPQKFPRP, the “shrunken log2 fold change” value falls from 0.474 to -0.638.

RRIRWRPPRLPRPRPRPHWPPRP and RRIRSRPPRLPRPRPRPRFAPRP are within 0.2 log units of each other in “shrunken log2 fold change” value: 0.248 for the first, 0.24 for the second.

RRIRGRPPRLPRPRPRPHTHPRP and RRIRCRPPRLPRPRPRPAEDPRP are within 0.2 log units of each other in “shrunken log2 fold change” value: 0.0537 for the first, 0.213 for the second.

RRIRSRPPRLPRPRPRPTTEPRP and RRIRGRPPRLPRPRPRPHCTPRP are within 0.2 log units of each other in “shrunken log2 fold change” value: 0.014 for the first, -0.0815 for the second.

First: RRIRKRPPRLPRPRPRPKAAPRP
Second: RRIRIRPPRLPRPRPRPHSQPRP
The “shrunken log2 fold change” value of the first is higher: 0.142 for the first, -0.824 for the second.

First: RRIRERPPRLPRPRPRPMWSPRP
Second: RRIRARPPRLPRPRPRPWRRPRP
The “shrunken log2 fold change” value of the first is lower: -0.351 for the first, 0.267 for the second.

Compared with RRIRLRPPRLPRPRPRPVPAPRP, RRIRDRPPRLPRPRPRPIKDPRP is lower in “shrunken log2 fold change” value: 0.222 for the first, -4 for the second.

RRIRERPPRLPRPRPRPHEHPRP and RRIRSRPPRLPRPRPRPSACPRP are within 0.2 log units of each other in “shrunken log2 fold change” value: -0.205 for the first, -0.0945 for the second.

RRIRLRPPRLPRPRPRPGTRPRP and RRIRDRPPRLPRPRPRPVIFPRP are within 0.2 log units of each other in “shrunken log2 fold change” value: 0.309 for the first, 0.212 for the second.

RRIRDRPPRLPRPRPRPSIVPRP and RRIRDRPPRLPRPRPRPKATPRP are within 0.2 log units of each other in “shrunken log2 fold change” value: -0.0831 for the first, 0.00253 for the second.

RRIRYRPPRLPRPRPRPCIQPRP and RRIRPRPPRLPRPRPRPNQSPRP are within 0.2 log units of each other in “shrunken log2 fold change” value: -0.172 for the first, -0.247 for the second.

Compared with RRIRNRPPRLPRPRPRPIWGPRP, RRIRGRPPRLPRPRPRPRAVPRP is higher in “shrunken log2 fold change” value: -0.0075 for the first, 1 for the second.

Compared with RRIRFRPPRLPRPRPRPLMAPRP, RRIRKRPPRLPRPRPRPHCEPRP is higher in “shrunken log2 fold change” value: -0.581 for the first, 0.177 for the second.

Going from RRIRRRPPRLPRPRPRPRPFPRP to RRIRNRPPRLPRPRPRPWRFPRP, the “shrunken log2 fold change” value falls from 0.699 to -0.0929.

Going from RRIRARPPRLPRPRPRPYFKPRP to RRIRGRPPRLPRPRPRPVWGPRP, the “shrunken log2 fold change” value rises from -0.551 to 1.08.

RRIRDRPPRLPRPRPRPKVRPRP and RRIRPRPPRLPRPRPRPFCCPRP are within 0.2 log units of each other in “shrunken log2 fold change” value: 0.00434 for the first, 0.0801 for the second.

RRIRQRPPRLPRPRPRPKVMPRP and RRIRGRPPRLPRPRPRPCPIPRP are within 0.2 log units of each other in “shrunken log2 fold change” value: -0.0261 for the first, -0.0298 for the second.

First: RRIRQRPPRLPRPRPRPCWQPRP
Second: RRIRARPPRLPRPRPRPDCIPRP
The “shrunken log2 fold change” value of the first is lower: -0.0325 for the first, 0.446 for the second.

Going from RRIRARPPRLPRPRPRPKYEPRP to RRIRERPPRLPRPRPRPTYEPRP, the “shrunken log2 fold change” value falls from 0.13 to -1.47.

First: RRIRERPPRLPRPRPRPVAPPRP
Second: RRIRLRPPRLPRPRPRPRCIPRP
The “shrunken log2 fold change” value of the first is higher: 0.246 for the first, -0.0325 for the second.

RRIRMRPPRLPRPRPRPWTGPRP and RRIRNRPPRLPRPRPRPVCNPRP are within 0.2 log units of each other in “shrunken log2 fold change” value: -0.217 for the first, -0.222 for the second.

First: RRIRMRPPRLPRPRPRPQCSPRP
Second: RRIRHRPPRLPRPRPRPGSIPRP
The “shrunken log2 fold change” value of the first is higher: 0.113 for the first, -0.209 for the second.

RRIRYRPPRLPRPRPRPGNSPRP and RRIRTRPPRLPRPRPRPEVTPRP are within 0.2 log units of each other in “shrunken log2 fold change” value: -0.0689 for the first, -0.00738 for the second.

First: RRIRHRPPRLPRPRPRPEMIPRP
Second: RRIRYRPPRLPRPRPRPNVDPRP
The “shrunken log2 fold change” value of the first is higher: 0.0986 for the first, -1.26 for the second.

For RRIRFRPPRLPRPRPRPVRNPRP, the “shrunken log2 fold change” value was 0.077.
